In general, Km refers to the concentration of substrate that gives half-maximal velocity.

Substrate in series [1]: Nc1c(S(=O)(=O)O)cc(Nc2cccc(S(=O)(=O)CCOS(=O)(=O)O)c2)c2c1C(=O)c1ccccc1C2=O
Put plainly: purified protein. To be noted: H2O2 co-substrate (0.1 mM in all tests), 50 mM phosphate pH 7.0, standard assay 60°C, temperature of kinetics not stated. The series is classed as biochemical, Saccharomonospora viridis.

Substrate in series [2]: CCN(CC)c1ccc(C(=C2C=CC(=[N+](CC)CC)C=C2)c2ccccc2)cc1
Put plainly: purified protein. In kind it is biochemical, Saccharomonospora viridis. Conditions: H2O2 co-substrate (0.1 mM in all tests), 50 mM phosphate pH 7.0, standard assay 60°C, temperature of kinetics not stated.

B1: SviDyP (Saccharomonospora viridis) (protein)
chain: MKGRRFGRRAFLATGAAALGGAAALGGRELFTGDGGADGRDRPDRGDIGRATVDFHGERQAGVATPAQAFATFVAFDLLDGVDREALIRWMRVWTDDIERLTRGAPALTDTEPELALLPARLTVTVGFGPGFLAAAGREELRPSWLAPLPEFPIDRLREEFSGGDLVAQVCADDEVTVAHAVRVLTKQARSFARPRWVQRGFRNTPGAVPEGATMRNLMGQLDGTRNLRPGPDDRLIWISDGPEWLRGGTGMVVRRIAMNLDTWDELDRPARELVIGRRLDNGAPLTGRHEHDEPDLEAVDERGLSVIPMFAHIRRARSDNPDERFLRRSYNYDDPPEPGELSNSGLVFVTFQADIEAQFTPIQRRLAELDSLNDWTTPIGSAVFAVPRGCRPGEYLGQPLLEA
notes: Ni-NTA and Sephadex G-75; tag removal not mentioned; ~45 kDa on SDS-PAGE
As for B1, the Km was found to be 210.2 ± 16.5 µmol/L in series [1] and 58.87 ± 4.7 µmol/L in series [2].

(Values after paper PMC4204856, “Application of a Novel Alkali-Tolerant Thermostable DyP-Type Peroxidase from Saccharomonospora viridis DSM 43017 in Biobleaching of Eucalyptus Kraft Pulp” (PLoS ONE, 2014).)
